Data: patent US20060293506A1 (Amgen, published 2006)

biological target: p35 form of the 30664188.0.99 gene product (active fragment of PDGFD) (human, UniProt Q9GZP0 250-370); assay: cell-based or functional assay

Binder | IC50 (ng/mL), BrdU incorporation assay on NIH 3T3 cells [ng/mL]
CURA2 MAb 1.46 (antibody, IgG2, V domains shown) VH: QVQLVQSGAEVKKPGASVKVSCKASGYSFTSYDINWVRQATGQGLEWMGWMNPNNGNTGYAQKFQGRVTMTRNTSISTAYMELSSLRSEDTAVYYCARDIVVVVTATDYYYGMDVWGQGTTVTVSS VL: DIQMTQSPSSLSASVGDRVTITCRASQGIRNDLGWYQQKPGKAPKRLIFAASSLPSGVPSRFSGSGSGTEFTLTISSLQPEDFATYYCLQHSGYPPTFGQGTKVEIK | 500
CURA2 MAb 1.19 (antibody, IgG2, V domains shown) VH: QVQLVQSGAEVKKPGASVKVSCKASGYTFTSYDINWVRQATGQGLEWMGWMNPNSGNTGYAQKFQGRVTMTRNTSISTAYMELSSLRSEDTAVYYCARDVMITFGGVIVHYGMDVWGQGTTVTVSS VL: DIQMTQSPSSLSASVGDRVTITCRASQGIRNDLGWYQQKPGKAPKRLIYAASSLQSGVPSRFSGSGSGTDFTLTISSLQPEDFATYYCLQHNSDPCSFGQGTKLEIR | 75
CURA2 MAb 1.18 (antibody, IgG2, V domains shown) VH: QVQLVQSGAEVKKPGASVKVSCKASGYTFTSYDINWVRQATGQGLEWMGWMNPNSGNTGYAQKFQGRVTMTRNTSISTAYMELSSLRSEDTAVYYCAREGIAVAGTYYYYYGMDVWGQGTTVTVSS VL: DIQMTQSPSSLSASVGDRVTITCRASQGIRNDLGWYQQKPGKAPKRLIYAASSLQSGVPSRFSGSGSGTEFTLTISSLQPEDFATYFCLQHNSYPFTFGPGTKVDIK | > 1000
CURA2 MAb 1.51 (antibody, IgG2, V domains shown) VH: EVQLVQSGAEVKKPGESLKISCKGSGYSFTSYWIGWVRQMPGKGLEWMGIIYPGDSDAKYSPSFQGQVTISADKSISTAYLQWSSLKASDTAMYYCARHYDYVWRNYRYTGWFDPWGQGTLVTVSS VL: not shown | 1000
CURA2 MAb 6.4 (antibody, IgG2, V domains shown) VH: QVQLVQSGAEVKKPGASVKVSCKASGYTFTSYDINWVRQATGQGLEWMGWINPNSGNTDYAQKFQGRVTMTRDTSISTAYMELSSLRSEDTAIYYCVRGFGYSYNYDYYYGMDVWGQGTTVTVSS VL: not shown | 75
CURA2 MAb 1.45 (antibody, IgG2, V domains shown) VH: QVQLVQSGAEVKKPGASVKVSCKASGYTFTSYDINWVRQATGQGLEWMGWMNPNSGNTGYAQKFQGRVTMTRNTSISTAYMELSSLRSEDTAVYYCARGSGYSYGYDYYYGMDVWGQGTTVTVSS VL: DIQMTQSPSSLSASVGDRVTINCRASQGISNDLAWYQQKPGKVPKLLIYAASTLQLGVPSRFSGSGSGTDFTLTISSLQPEDVATYYCQKYNSAPFTFGPGTKVDIK | 750
CURA2 MAb 1.29 (antibody, IgG2, V domains shown) VH: EVQLVQSGAEVKKPGESLKISCKGSGYSFTSYWIGWVRQMPGKGLEWMGIIYPGDSDTRYSPSFQGQATISADKSISTAYLQWSSLKASDTAMYYCARHVDVGATIGGYYYYYHGMDVWGQGTTVTVSS VL: not shown | 150
